The target of assay [1] is wild-type ferritin from Pyrococcus furiosus (WT-PfFtn) (Pyrococcus furiosus) (UniProt Q8U2T8). Kind of assay: native gel or EMSA; native gel electrophoresis of apo protein; WT-PfFtn 5 μM monomer, R117A-PfFtn 4.3 or 80 μM monomer. Background: In EMSA bound probe runs differently from free probe, usually more slowly.
Assay [2] has as its target R117A mutant of ferritin from Pyrococcus furiosus (R117A-PfFtn) (Pyrococcus furiosus) (UniProt Q8U2T8).

Bounds are passed on as bounds.

One may read the stoichiometry N as the number of molecules, sites or subunits per partner or assembly.

Regarding “wild-type ferritin from Pyrococcus furiosus (WT-PfFtn) (from UniProt Q8U2T8 1-174) (natural protein)”, the stoichiometry N in assay [1] amounted to 24.
In turn, “R117A mutant of ferritin from Pyrococcus furiosus (R117A-PfFtn) (from UniProt Q8U2T8 1-174) (natural protein)” registered a rate of Fe(II) oxidation (Fe(III) formation at 315 nm after addition of two Fe(II) per subunit), R117A-PfFtn against WT-PfFtn in assay [2] above 100 fold.

For the origin of these results see publication PMC4646333.
